The source of these data is the nanobody polyreactivity screen of Harvey et al. (2022).

This series in a line: yeast display, Sf9 membrane polyspecificity reagent, FACS + sequencing; frameworks hold sequencing errors. An outline of the steps:
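Nanobodies came from a synthetic yeast display library in Saccharomyces cerevisiae BJ5465, induced with galactose for 36–48 hours and stained for 1 hour at 4 °C with 10% biotinylated, detergent-solubilized Sf9 membrane reagent. Cells were enriched on streptavidin microbeads and then FACS-sorted, with low and high (top ~1%) gates set on anti-HA fluorescence for expression and streptavidin fluorescence for reagent binding. Each polyreactivity label reflects the gate a clone came from. Genes were amplified by colony PCR, sequenced by MiSeq 2 × 250 and filtered by CDR length.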
Regarding “QVQLVESGGGLVQAGGSLRLSCAASGFNFRYNAMGWYRQAPGKERELVAGISGGGTHYADSVKGRFTISRDNAKNTVYLQMNSLKPEDTAVYYCARRGGYRRNTNFYYWGQGTQVTVSS”, the “polyreactivity (PSR sort gate)” value is “high polyreactivity”.

Regarding “QVQLVESGGGLVQAGGSLRLSCAASGFNFSHNAMGWYRQAPGKERELVAAISGSGGRTYYADSVKGRFTISRDNAKNTVDLQMNSLKPEDTAVYYCNAGRWWRRGYGYWGQVTQVTVSS”, the “polyreactivity (PSR sort gate)” value is “high polyreactivity”.

As to “QVQLVESGGGLVQAGGSLRLSCAASGFNFTRYAMGWYRQAPGKERELVAAISSGSRTYYADSVKGRFTISRDNAKNTVYLQMISLKPEDTAVYYCAAPVYTYYGHYDSWGQGTQVTVSS”, the “polyreactivity (PSR sort gate)” value was “high polyreactivity”.

Take “QVQLVESGGGLVQAGGSLRLSCAASGFNFYFYTMGWYRQAPGKERELVAGITWSGDSTYYADSVKGRFTISRDNAKNTVYLQMNSLKPEDTAVYYCAAGFDFGTRVSKGYDYWGQGTQVTVSS”: the “polyreactivity (PSR sort gate)” value is “low polyreactivity”.

For “QVQLVESGGGLVQAGGSLRLSCAASGFNFYGYAMGWYRQAPGKERQLVATISRGGSTTYYADSVKGRFTISRDNAKNTVYLQMNSLKPEDTAVYYCAAYNVIYTRRMYYWGQGTQVTVSS”, the “polyreactivity (PSR sort gate)” value is given as “high polyreactivity”.

For “QVQLVESGGGLVQAGGSLRLSCAASGFNFYRYAMGWYRQAPGKERELVAVITGRGGTTYYSDSVKGRFTISRDNAKNTVYLQMNSLKTEDTAVYYCAAPQQQSWTYDGRYGYWGQGTKVTVSS”, the “polyreactivity (PSR sort gate)” value was “high polyreactivity”.

Turning to “QVQLVESGGGLVQAGGSLRLSCAASGFPFVYYVMGWYRPAPGKERELVAAINAGGGYTYYADSVKGRFTISRDNAKNTVYVQMNSLKPEDTAVYYCNARVRVRLGRNWSSYYYWGQGTQVTVSS”, the “polyreactivity (PSR sort gate)” value is recorded as “high polyreactivity”.

As to “QVQLVESGGGLVQAGGSLRLSCAASGFSFDFYTMGWYRQAPGKERELVAAITWSGDSTYYADSVKGRFTISRDNAKNTVDLQMNSLKPEDTAVYYCAVARVSQDGYRRRVTTWHDDYWGQGTQVTVSS”, the “polyreactivity (PSR sort gate)” value was “low polyreactivity”.

On to “QVQLVESGGGLVQAGGSLRLSCAASGFSFDTYAMGWYRQAPGKERELVAVISRGGSTYYADSVKGRFTISRDNAKNTVYLQMNSLKPEDTAVYYCAARSHGSYAYQYGYWGQGTQVTVSS”, for which the “polyreactivity (PSR sort gate)” value was “high polyreactivity”.

Regarding “QVQLVESGGGLVQAGGSLRLSCAASGFSFGVYAMGWSRQAPGKERELVAAISTTVGSTYYADSVKGRFTISRDNAKNTVYLQMNSLKPEDTAVYYCAAEYTGYINYYIYEYWGQGTQVTVSS”, the “polyreactivity (PSR sort gate)” value was “low polyreactivity”.

“QVQLVESGGGLVQAGGSLRLSCAASGFSFIDNALGWYPQAPGKERELVAAITWSGGSTYYADSVKGRFTISRDNAKNTVYLQMNSLKPEDTAVYYCAATLWFGVAGDSRYDPPEYDYWGQGTQVTVSS”: the “polyreactivity (PSR sort gate)” value is reported as “low polyreactivity”.

Regarding “QVQLVESGGGLVQAGGSLRLSCAASGFSFRYYAMGWYRQAPGKERELVAAISSSGTRTYYADSVKGRFTISRDNATTTVYLQMNSLKPEDTAVYYCNAGSPTSTVDYWGQGTQVTVSS”, the “polyreactivity (PSR sort gate)” value is reported as “high polyreactivity”.

As to “QVQLVESGGGLVQAGGSLRLSCAASGFSFSSYAMGWYRQAPGTERELVATISVNGGSTNYADSVKGRFTISRDNAKNTVYLQMNSLIPEDTAVYYCNAKSYTRRSYYTPTVPGDYWGQGTQVTVSS”, the “polyreactivity (PSR sort gate)” value is “low polyreactivity”.

“QVQLVESGGGLVQAGGSLRLSCAASGFSFSYYAMGWYRQAPGKERELVAAINYSGTSTYYADSVKGRFTISRDNAKNTVYLQMKSLKPEDTAVYYCAADLPYYPYLYDYWGQGTQVTVSS”: the “polyreactivity (PSR sort gate)” value was “low polyreactivity”.

In the case of “QVQLVESGGGLVQAGGSLRLSCAASGFSFTRYAMGWYRQAPGKERELVAAIYIGGSTYYADSVKGRFTISRDNAKNTVYFQMNSQKPEDTAVYYCAVDYRHSSSWNAGPWEMYYWGQGTKVTVSS”, the “polyreactivity (PSR sort gate)” value is reported as “low polyreactivity”.

For the sequence “QVQLVESGGGLVQAGGSLRLSCAASGFSFYRYAMGWYRQAPAKERELVARTYYADSVKGRFTISRDNAKNTVYLQMNSLKPEDTAVYYCNKDLELEYRYEYWGQGTQVTVSS”, the “polyreactivity (PSR sort gate)” value is on record as “low polyreactivity”.

Take “QVQLVESGGGLVQAGGSLRLSCAASGFSFYSYTMGWYRQAPGSVRELVAAISRSGGRTSYADSVKGRFTNSRDNAKNTVYLQMNSLKPDDTAVYYRNAVRLLQTFAEYEYWGQGTQVTVSS”: the “polyreactivity (PSR sort gate)” value was “high polyreactivity”.

Regarding “QVQLVESGGGLVQAGGSLRLSCAASGFSLRNNAMGWYRPAPGKERELVAGITSGGRTNYADSVKGRFTISRDNAKNTVYLQMNSLKPEHTAVYYCAKRVWPRDQYGKRNPRMDYWGQGTLVTVSS”, the “polyreactivity (PSR sort gate)” value was “high polyreactivity”.

“QVQLVESGGGLVQAGGSLRLSCAASGFSYRYYAMGWYRQAPGKERELVAAISSRGGSTYYADSVKGRFTISRDNATNTVYLQMNSLKPEDTAVYYCAADHGDPGGYDYWGQGTQVTVSS”: the “polyreactivity (PSR sort gate)” value is “high polyreactivity”.

“QVQLVESGGGLVQAGGSLRLSCAASGFTCARYALGWYRQAPGQERELVASITWNGGRTYYAASVKGRFTISRDNAKNTVYLQMNSLKPEDTAVYYCAKDTRYTRYEYWGQGTQVTVSS”: the “polyreactivity (PSR sort gate)” value is “high polyreactivity”.

As to “QVQLVESGGGLVQAGGSLRLSCAASGFTCGYYAMGWYREAPGKEREFVATISYGTGSTYYADSVKGRFTISRDNAKNTVSFQMNSLKPEDTAVYYCNADTWPGEYNGYFSGAYDYWGQGTQVTVSS”, the “polyreactivity (PSR sort gate)” value was “high polyreactivity”.

Take “QVQLVESGGGLVQAGGSLRLSCAASGFTFAANTMGWYRQAPGKERELVADISGRGDRTSYADSVKGRFTISRDNAKNTVYLQMNSLKPEDTSVYYCAVDIYYYSNVHYYYWGQGTQVTVSS”: the “polyreactivity (PSR sort gate)” value is on record as “low polyreactivity”.

“QVQLVESGGGLVQAGGSLRLSCAASGFTFADYAMGWYRQAPGKERELVAAINRSGGRTYYADSVKGRFTISRDNAKNTVYLQMNSLKPEDTAVYYCAAYGITYHNYDYWGQGTQVTVSS”: the “polyreactivity (PSR sort gate)” value is reported as “high polyreactivity”.

As for “QVQLVESGGGLVQAGGSLRLSCAASGFTFAGNARGWDRQSPGKERELVAAITSGGSTYYADSVKGRFTMSRDKAKNTVYLQMNSLKPEDTAVYYCAALVFRGRSFTHDYWGQGTQVTVSS”, the “polyreactivity (PSR sort gate)” value was “high polyreactivity”.

As for “QVQLVESGGGLVQAGGSLRLSCAASGFTFAGYAMGWNRQAPGKERELVAASNRGGSTYYADSVKGRFTSSRDNAKHTVYLQRNSLKPEDTAVYYCAKAQRFYGGRMGYWGQGTQVTVSS”, the “polyreactivity (PSR sort gate)” value was “low polyreactivity”.

In the case of “QVQLVESGGGLVQAGGSLRLSCAASGFTFAGYAMGWYRQAPGKERELVAAISWRGGSTYYADSVKGRFTISRDNAKNTVYLQMNSLKPEDTAVYYCAAASRKRTSREPLDYWGQGTQVTVSS”, the “polyreactivity (PSR sort gate)” value is reported as “high polyreactivity”.

Take “QVQLVESGGGLVQAGGSLRLSCAASGFTFAGYAMGWYRQAPGKERELVAGIRSSGARTNYADSVKGRFTISRDNAKNTVYLQMNSLKPEDTAVYYCNAVRTLYIWWPGYYYWGQGTQVTVSS”: the “polyreactivity (PSR sort gate)” value was “low polyreactivity”.

On to “QVQLVESGGGLVQAGGSLRLSCAASGFTFAGYAMGWYRQAPGKERELVAGIRSSGARTYYADTVKGRFTISRDNAKNTVYFQLKSLKPDDTAVYYCAKTDGFYGGYGYWGQGTQVTVSS”, for which the “polyreactivity (PSR sort gate)” value is “low polyreactivity”.

With “QVQLVESGGGLVQAGGSLRLSCAASGFTFAHNAMGWYRQAPGKERELLAAISSRGGRTFYADSVKGRFTISRDNAKNTVYLQMNSLKPEDTAVYYCNRVRSVTPSPRYYYWGQGTQVTVSS”, the “polyreactivity (PSR sort gate)” value is listed as “high polyreactivity”.

Take “QVQLVESGGGLVQAGGSLRLSCAASGFTFALNAMGWYRQAPGKERELVAAISFSGTRTYYADSVKGRFTISRDNAKNTVYLQMNSLKPEDTAVYYCAARVWVSDSYYPYYYWGQGTQVTVSS”: the “polyreactivity (PSR sort gate)” value is given as “high polyreactivity”.

On to “QVQLVESGGGLVQAGGSLRLSCAASGFTFALYTMGSYRQAPGKERELVAAIRSTGSTYADSVKGRFTISRDNAKNTVYLQMNSLKPEDTAVYYCAAQYWRRKKYYYWGQGTQVTVSS”, for which the “polyreactivity (PSR sort gate)” value is on record as “high polyreactivity”.

As to “QVQLVESGGGLVQAGGSLRLSCAASGFTFARNAMGWYRQAPGKERELVAAINRSGGSTYYADSVKGRFTISRDNAKNTVYLQMNRLKPEDTAVYYCNKPRLAQQGYDYWGQGNQVTVSS”, the “polyreactivity (PSR sort gate)” value is “high polyreactivity”.

For “QVQLVESGGGLVQAGGSLRLSCAASGFTFARNAMGWYRQAPGKERELVAVISRGGSTNYADSVKGRFTISRDNAKNTVSLQLHSLKPEDTAVYYCATRSSRRSYYLGEFNYWGQGTQVTVSS”, the “polyreactivity (PSR sort gate)” value is “high polyreactivity”.

As to “QVQLVESGGGLVQAGGSLRLSCAASGFTFARYAMGWYRQAPGKERELVAAITYSGGRTYYADSVKGRFTISRDNAKNTVYLQMNSLKPEDTAVYYCAARLSKRSGYYYWGQGTQVTVSS”, the “polyreactivity (PSR sort gate)” value is “high polyreactivity”.

On to “QVQLVESGGGLVQAGGSLRLSCAASGFTFARYAMGWYRQAPGKERELVASISGSGGSTYYADSVKGRFTISRDNAKNTVYLQMNSLKPEDTAVYYCAADTWYGFDWGQGTQVTVSS”, for which the “polyreactivity (PSR sort gate)” value was “high polyreactivity”.

Regarding “QVQLVESGGGLVQAGGSLRLSCAASGFTFARYTMGWYRQAPGKERELVAAISSRGSSTYYADSVKGRFTISRDNAKNTVFLQMNSLKPEDTAVYYCAASPYDTQTLDYDYWGQGTQVTVSS”, the “polyreactivity (PSR sort gate)” value is “high polyreactivity”.

For the sequence “QVQLVESGGGLVQAGGSLRLSCAASGFTFATYTIGWYRPAPGKERELVAAISWSGGSTYYADSVKGRFTISRDNAKNTVYLQMNSLKPEDTAFYYCAAQRPSALRLYSSQRTIFGYWGQGTQVTVSS”, the “polyreactivity (PSR sort gate)” value is “high polyreactivity”.

With “QVQLVESGGGLVQAGGSLRLSCAASGFTFAVSAMGWYRQAPGKERELVAAISRSGTRTYYADSVKGRFTISRDNAKNTVYLQMNSLKPEDTAVYYCAADKYRHGYDYWGQGTQVTVSS”, the “polyreactivity (PSR sort gate)” value was “low polyreactivity”.

For the sequence “QVQLVESGGGLVQAGGSLRLSCAASGFTFAVYAMGWDSQAPGKERELVAAISRSGTRTYYADSVKGRFTSSRDNAKNTVSLQMNSLKPEDTAVYYCAADKYRHGYDYWGQGTQVTVSS”, the “polyreactivity (PSR sort gate)” value is given as “low polyreactivity”.

Regarding “QVQLVESGGGLVQAGGSLRLSCAASGFTFAVYAMGWYRQAPGKERELVAAISRSGTRTYYADSVKGRFTISRDNAKNTVYLQMNSLKPEDTAVYYCAADKYRHGYDYWGQGTQVTVSS”, the “polyreactivity (PSR sort gate)” value is reported as “low polyreactivity”.

As for “QVQLVESGGGLVQAGGSLRLSCAASGFTFAVYVMGWYRPGRGKERELVAAISRSGGSTYYADSVKGRFTISRDNANNTDYLQMNSLNPEDTAVYYCAASPKRVLRESGDYCGQGTQVTVSS”, the “polyreactivity (PSR sort gate)” value was “high polyreactivity”.
